Source: publication PMC8053116

Biological target: multi-tRNA synthetase complex without ArgRS and GlnRS (human (endogenous in HEK 293T)) (UniProt P56192)
Test: SEC; lysate of wildtype 293T cells (20 mM Tris-HCl pH 7.5, 1 mM EDTA, 150 mM NaCl, 0.1% IGEPAL CA-630) on Superdex 200 in Dulbecco's PBS; 1 ml fractions analysed by western blot; intact MSC in fractions 10-12

Sequence of UniProt P56192 (P56192 whole entry, looked up, one chain of several): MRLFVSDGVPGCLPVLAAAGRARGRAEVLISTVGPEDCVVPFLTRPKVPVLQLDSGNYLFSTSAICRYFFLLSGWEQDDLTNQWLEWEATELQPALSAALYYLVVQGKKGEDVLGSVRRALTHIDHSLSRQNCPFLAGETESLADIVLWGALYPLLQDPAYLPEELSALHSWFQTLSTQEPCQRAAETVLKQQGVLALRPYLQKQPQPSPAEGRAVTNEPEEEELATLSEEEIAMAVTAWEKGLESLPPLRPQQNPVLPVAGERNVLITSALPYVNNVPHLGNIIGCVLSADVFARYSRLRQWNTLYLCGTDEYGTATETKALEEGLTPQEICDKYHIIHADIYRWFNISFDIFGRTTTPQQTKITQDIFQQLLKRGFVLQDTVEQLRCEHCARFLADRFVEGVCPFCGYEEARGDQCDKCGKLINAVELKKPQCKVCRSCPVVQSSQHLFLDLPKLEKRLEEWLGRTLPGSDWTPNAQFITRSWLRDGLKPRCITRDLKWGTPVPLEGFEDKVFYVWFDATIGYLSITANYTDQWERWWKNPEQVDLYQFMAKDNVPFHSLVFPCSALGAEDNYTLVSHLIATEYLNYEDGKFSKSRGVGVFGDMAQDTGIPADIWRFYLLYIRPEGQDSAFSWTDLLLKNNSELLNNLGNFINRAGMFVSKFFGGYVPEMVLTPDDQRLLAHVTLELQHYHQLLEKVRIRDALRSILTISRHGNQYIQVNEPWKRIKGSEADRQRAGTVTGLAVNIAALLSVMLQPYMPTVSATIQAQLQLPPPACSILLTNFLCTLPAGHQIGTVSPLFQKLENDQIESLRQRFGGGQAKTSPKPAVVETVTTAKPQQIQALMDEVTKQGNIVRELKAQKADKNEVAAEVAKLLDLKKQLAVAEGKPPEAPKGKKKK

- percent of ArgRS not bound to the MSC: 40%
B1: arginyl-tRNA synthetase, full-length (enzyme)
chain: MDVLVSECSARLLQQEEEIKSLTAEIDRLKNCGCLGASPNLEQLQEENLKLKYRLNILRKSLQAERNKPTKNMINIISRLQEVFGHAIKAAYPDLENPPLLVTPSQQAKFGDYQCNSAMGISQMLKTKEQKVNPREIAENITKHLPDNECIEKVEIAGPGFINVHLRKDFVSEQLTSLLVNGVQLPALGENKKVIVDFSSPNIAKEMHVGHLRSTIIGESISRLFEFAGYDVLRLNHVGDWGTQFGMLIAHLQDKFPDYLTVSPPIGDLQVFYKESKKRFDTEEEFKKRAYQCVVLLQGKNPDITKAWKLICDVSRQELNKIYDALDVSLIERGESFYQDRMNDIVKEFEDRGFVQVDDGRKIVFVPGCSIPLTIVKSDGGYTYDTSDLAAIKQRLFEEKADMIIYVVDNGQSVHFQTIFAAAQMIGWYDPKVTRVFHAGFGVVLGEDKKKFKTRSGETVRLMDLLGEGLKRSMDKLKEKERDKVLTAEELNAAQTSVAYGCIKYADLSHNRLNDYIFSFDKMLDDRGNTAAYLLYAFTRIRSIARLANIDEEMLQKAARETKILLDHEKEWKLGRCILRFPEILQKILDDLFLHTLCDYIYELATAFTEFYDSCYCVEKDRQTGKILKVNMWRMLLCEAVAAVMAKGFDILGIKPVQRM
